Assay results: patent US7163815B2, “Methods and compositions for NAD(P)(H) oxidases” (Georgia Tech Research Corporation, priority 2002, dated 2007)
Numbering of substitutions follows the chain as printed. In names and notes the source's numbering stands. Entries after “also recorded” stand apart in the source; their conditions may differ.

Columns and labels:
[1] = tested on: L. brevis (R)-ADH, G37D mutant; conditions: in comparison with the wildtype for NADP^+; cited from earlier work
[2] = molecular target: Borrelia burgdorferi NADH oxidase BNOX (BNOXK6; SEQ ID NOs 8, 10 and 12) (Borreliella burgdorferi, UniProt O51670, E220G/N174S); assay: Kinetics of cofactor substrates, BNOX (change of absorbance at 340 nm); format: biochemical; conditions: pH 7.0, 30° C., comparable degree of purity to SFNOX
Method: (§1) The kinetic analysis was performed on ammonium sulfate fractions from both the sfnox and bnox strains in 50 mM HEPES buffer pH 7.0 at 30° C. The initial enzyme fractions were diluted in 25 mM HEPES pH 7.0 at 30° C.+25% glycerol+5 mM DTT to approximately −0.05 A340 nm/min and retained on ice during analysis. Conversion of NAD(P)H was followed by change of absorbance at 340 nm in a Jasco V-530 spectrophotometer. 3 mL methylacrylate disposable cuvettes were used for all experiments and all runs were performed in triplicate at 30° C. Reactions with NADH were started by adding 3 μL of enzyme preparation, 9 μL for NADPH, to the cuvette and mixing by inversion with parafilm three times. Varying concentrations of NAD(P)H substrate were made my preparing 100 mL of a 300 μM solution in a volumetric flask. Dilutions of this solution were then made to provide the differing substrate concentrations for the kinetic profile.
(§2) Investigation of kinetic parameters with NADH and NADPH cofactors as substrates was performed with the supernatant of the 45% ammonium sulfate cut (40% for BNOXK6) in air-saturated solution at 30° C. and pH 7.0 in 0.1 M HEPES buffer. […] Chi values and error bars reveal high accuracy with <10% error in most cases.

[3] = tested on: NC(=O)C1=CN([C@@H]2O[C@H](COP(=O)(O)OP(=O)(O)OC[C@H]3O[C@@H](n4cnc5c(N)ncnc54)[C@H](O)[C@@H]3O)[C@@H](O)[C@H]2O)C=CC1; assay: as above; format: biochemical, Borrelia burgdorferi; conditions: other: BNOX, pH 7.0, 30° C., HEPES buffer, air-saturated solution, 40% ammonium sulfate cut for BNOXK6
Method: as §1, §2

[4] = Hydrogen peroxide assay (Amplex Red / resorufin fluorescence); format: biochemical; conditions: upon conversion of 300 μM NADH
Method: With its detection limit of 100 nM, the test based on 9-acetyl-resorufin (“Amplex Red”) is much more sensitive than the other assays mentioned. Horseradish peroxidase (HRP)-catalyzed oxidation of 9-acetyl resorufin (“Amplex Red”) to fluorescent resorufin was the assay. Amplex Red reacts with H2O2 according to a strict 1:1 stoichiometry. The resorufin assay (λmax: 587 nm (emission), ε=54,000 L(mol-cm)^−1) with its extremely low detection limit of 100 nM resorufin product is much more sensitive than other assays, such as ABTS or o-dianisidine..
For the sensitive assay of putative hydrogen peroxide formation during the reaction of NADH oxidase the horseradish peroxidase-catalyzed oxidation of 9-acetyl resorufin was employed. The Amplex Red hydrogen peroxide assay kit (A-22188) from molecular probes was utilized for these assays. Following the protocols outlined in the kit instructions, a standard curve of H2O2 was prepared in the reaction buffer (50 mM sodium phosphate buffer pH 7.4) from the peroxide stock. The prepared concentrations were 20, 10, 5, and 2.5 μM H2O2 and 0 as a control. A working solution of 100 μM Amplex Red reagent and 0.2 U/ml horseradish peroxidase (HRP) was prepared in the reaction buffer as per kit instructions. As NADH and other reducing reagents are known to interfere with the amplex red assay, the NADH oxidase enzymes were allowed to react with the substrate immediately prior to the Amplex Red analysis. Reaction buffer from the kit was utilized in running enzyme test with 300 μM NADH as well as the controls without NADH. The enzyme conversions were performed by adding 3 μl of enzyme prep to 3 ml of reaction buffer with 300 μM NADH, mixing, and following the conversion until completion by absorbance at 340 nm. 50 μl of the final reaction mixture and standard curve solutions were added to each well in a 96 well fluorescence plate (costar, black, pp). Five replicates were made per sample and standard curve point. […] Fluorescence readings were performed in a BMG FLUOstar Galaxy micro plate reader with 544ex/590em filter settings.

[5] = Kinetics of cofactor substrates, NADPH; format: biochemical; conditions: pH 7.0, 30° C.
Method: as §1, §2

[6] = Nox activity assay (NADH oxidation at 340 nm); format: biochemical; conditions: overexpressed in E. coli
Method: Nox activity assay: Cell-free extracts of the recombinant sfnox and bnox E. coli strains were prepared using ultrasonication described above in 0.1 M TEA pH 7.5+5 mM DTT or β-mercaptoethanol. Nox activities were assayed at 30° C. in a total volume of 1 mL at 340 nm using the following conditions: in 0.1 M TEA pH 7.5 a final concentration of 0.2 mM NADH was dissolved and 10 μl enzyme solution was added. Enzyme reaction was followed for 1 min, activity was calculated using an extinction coefficient ε of NADH of […].

Activity-pH profile = format: biochemical
Method: With the supernatant of the 45% ammonium sulfate cut, an activity—pH profile was measured for SFNOX (FIG. 4). The pH optimum of activity was found at pH 5.2. Below pH 5, activity decreased markedly and reached zero at pH 4.5. Rates at pH 4.5 to 5.2 are reported as net rates, with the chemical decomposition rate at low pH subtracted. […] The sharp activity decline between pH 5.2 and 6.0 coincides with the enzyme's pI, calculated to be pH 5.4.
The pH profile was performed on ammonium sulfate fractions from the sfnoxK2. 100 mM buffer solutions at 30° C. and 200 μM NADH were used for activity analysis as monitored by absorbance at 340 nm. All samples were tested in triplicate in 3 mL methylacrylate disposable cuvettes. The following buffers were utilized within the buffering range of 1 pH unit from their pKa: acetate, N-methylpiperazine, MES (2-[N-morpholino]ethanesulfonic acid hydrate), and bis-tris-propane. Sodium hydroxide or hydrochloric acid were used in preparation of the respective buffers.

NC(=O)c1ccc[n+]([C@@H]2O[C@H](COP(=O)([O-])OP(=O)(O)OC[C@H]3O[C@@H](n4cnc5c(N)ncnc54)[C@H](O)[C@@H]3O)[C@@H](O)[C@H]2O)c1 [NAD^+]
KM-value for NAD^+ [1]: very high

NC(=O)C1=CN([C@@H]2O[C@H](COP(=O)(O)OP(=O)(O)OC[C@H]3O[C@@H](n4cnc5c(N)ncnc54)[C@H](O)[C@@H]3O)[C@@H](O)[C@H]2O)C=CC1 [NADH]
vmax [2]: 2.03 U/mg

Borrelia burgdorferi NADH oxidase BNOX (BNOXK6; SEQ ID NOs 8, 10 and 12) (Borreliella burgdorferi B31; E220G/N174S)
Km [3]: 22.0 µM

B1: BNOX: NADH oxidase from Borrelia burgdorferi, SEQ ID NO 8; reacts with NADH only (protein)
chain: MMKIIIIGGTSAGTSAAAKANRLNKKLDITIYEKTNIVSFGTCGLPYFVGGFFDNPNTMISRTQEEFEKTGISVKTNHEVIKVDAKNNTIVIKNQKTGTIFNNTYDQLMIATGAKPIIPPINNINLENFHTLKNLEDGQKIKKLMDREEIKNIVIIGGGYIGIEMVEAAKNKRKNVRLIQLDKHILIDSFDEEIVTIMEEELTKKGVNLHTNEFVKSLIGEKKAEGVVTNKNTYQADAVILATGIKPDTEFLENQLKTTKNGAIIVNEYGETSIKNIFSAGDCATIYNIVSKKNEYIPLATTANKLGRIVGENLAGNHTAFKGTLGSASIKILSLEAARTGLTEKDAKKLQIKYKTIFVKDKNHTNYYPGQEDLYIKLIYEENTKIILGAQAIGKNGAVIRIHALSIAIYSKLTTKELGMMDFSYSPPFSRTWDILNIAGNAAK
resorufin above background (equal concentration of H2O2 formed) [4]: could not detect any resorufin above background | acceptance of NADPH as a substrate [5]: does not accept NADPH as a substrate; also recorded: only accepts NADH

B2: SFNOXK2: sequenced SFNOX clone with alanine to valine change at position 30 (A30V), SEQ ID 4 (protein)
chain: MKVIVVGCTHAGTFAVKQTIADHPDADVTVYEMNDNISFLSCGIALYLGKEIKNNDPRGLFYSSPEELSNLGANVQMRHQVTNVDPETKTIKVKDLITNEEKTEAYDKLIMTTGSKPTVPPIPGIDSSRVYLCKNYNDAKKLFEEAPKAKTITIIGSGYIGAELAEAYSNQNYNVNLIDGHERVLYKYFDKEFTDILAKDYEAHGVNLVLGSKVAAFEEVDDEIITKTLDGKEIKSDIAILCIGFRPNTELLKGKVAMLDNGAIITDEYMHSSNRDIFAAGDSAAVHYNPTNSNAYIPLATNAVRQGRLVGLNLTEDKVKDMGTQSSSGLKLYGRTYVSTGINTALAKANNLKVSEVIIADNYRPEFMLSTDEVLMSLVYDPKTRVILGGALSSMHDVSQSANVLSVCIQNKNTIDDLAMVDMLFQPQFDRPFNYLNILGQAAQAQADKAHK
activity of the overexpressed constructs [6]: comparable activity

B3: SFNOX: NAD(P)H oxidase isolated from Lactobacillus sanfranciscensis, SEQ ID NO 2; oxidizes NADH and NADPH, reduces oxygen to water (protein)
chain: B2 chain with V30A
pH of the minimum of the bimodal activity-pH curve (Activity-pH profile; 200 μM NADH, 30° C.): ~5.5 | pH optimum of activity (Activity-pH profile; 200 μM NADH, 30° C., supernatant of 45% ammonium sulfate cut): 5.2 | activity at pH 4.5 (Activity-pH profile; pH 4.5, net rate): zero | activity at pH 5.5 (Activity-pH profile; pH 5.5): instantaneously lose activity | H2O2 yield [4]: 0.2% | resorufin above background (equal concentration of H2O2 formed) [4]: 0.6 µM | acceptance of NADPH as a substrate [5]: accept NADPH as a substrate with good reactivity | activity with NADPH relative to activity towards NADH ([5]; ratio of vmax): about 30%

B4: SFNOXK6: sequenced SFNOX clone with A30V and lysine to arginine at position 102 (K102R), SEQ ID NO 6 (protein)
chain: B2 chain with K102R, E250G
activity of the overexpressed constructs [6]: comparable activity
